This note sets out measurements from patent publication US20240409586A1, “CYCLIC POLYPEPTIDE CARRIER FOR EFFICIENT DELIVERY OF NUCLEIC ACID, AND VARIANTS THEREOF” (SUZHOU HEALIRNA BIOTECHNOLOGY CO., LTD., priority 2022, published 2024).

Bridge positions count the residues as written; N and C are the ends. Ends that are not written are not given here.

Data set [1] can be described thus: Dynamic light scattering of particles formed by cyclic peptide samples with siRNA. The data set is classed as physicochemical. The following applies: cyclic peptide/RNA mass ratio 4:1, DLS; for Zeta potential: in mV (unit assumed). The procedure:
Utilizing the Malvern Zetasizer Nano ZS (Malvern Nano Particle Sizing Instrument), the particle size (Size), polydispersity index (PDI), and zeta potential (Zeta P) of the particles formed after samples 1-9 encapsulate siRNA at a cyclic peptide/RNA mass ratio of 4:1 were measured by dynamic light scattering (DLS).

Data set [2] concerns siRNA. Briefly: Agarose gel electrophoresis of cyclic peptide/siRNA formulations (encapsulation). The data set is classed as physicochemical. The following applies: mass ratio of 4:1 of cyclic peptide/siRNA. The procedure: a. Weigh out 0.5 g of agarose powder and pour it into a conical flask, then add 50 mL of 1×TAE electrophoresis buffer into the flask. Dissolve it completely under heating conditions.
b. After cooling to 65° C., add 5 μL of ethidium bromide, swiftly pour into the gel casting tray, insert the comb, and let it stand at room temperature for 0.5-1 hour until the gel solidifies.
c. Next, remove the comb, pour 1×TAE electrophoresis buffer into the well to submerge the gel.
d. Prepare nine formulations of cyclic peptides with siRNA, using samples 1-9 at mass ratios of 1-4 of sample/siRNA. Mix 2 μL of 6× loading dye with 10 μL of samples, load 10 μL into the wells, and concurrently load 10 μL of DNA Marker and bare siRNA into the wells as controls.
e. Subsequently, run the electrophoresis at […] for 45 minutes, turn off the power supply, remove the gel, and observe and record the electrophoresis image with a UV gel imaging system.

Data set [3] deals with 293T cells. The experiment in a line: EGFP mRNA transfection, fluorescence microscopy. The data set is classed as cell-based, human. Conditions: 24 hours, S5/mRNA mass ratios 10:1, 12.5:1, 15:1. From the text:
1. Sample preparation: Sample 5 (S5) was selected and mixed in a microfluidic channel to form a particle solution at different cyclic peptide/mRNA mass ratios (10:1, 12.5:1, 15:1), and then left to stabilize.
2. Control formulation: A lipid nanoparticle (LNP) control at a ratio of 4-(N,N-dimethylamino) butyric acid (dilinoleyl) methyl ester/DSPC/cholesterol/1,2-dimyristoyl-rac-glycerol-3-methoxypolyethylene glycol 2000=50:10:38.5:1.5 was used and mRNA was encapsulated according to the method described in Embodiment 3.
3. Cell plating: 293T cells were plated in a 24-well plate with 9 wells per cell type, each well containing 1 ml of medium and 1×10^5 cells, grown for 12 hours until adherence.
4. Solution preparation: PBS (control); for each group in 3 ml serum-free medium, 3×20 μl=60 μl of prepared sample was added and mixed well, 1 ml per well. Transfection group (lipo2000); in 1.2 ml serum-free medium, add 30 μl of mRNA at a concentration of 0.1 μg/μl and 3 μl×3=9 μl of lipo2000, mix well, let stand for 5-10 min. Cells were washed, transfection reagent was added at 400 μl per well, topped up with 600 μl DMEM complete medium. […]
5. Photo capture: Fluorescence photo: exposure time 600 ms, exposure magnification 14, exposure brightness +1; white light photo: exposure time 10 ms, exposure magnification 1, exposure brightness +1.

Data set [4] is described as follows: Dynamic light scattering of cyclic peptide/siRNA and cyclic peptide/lipid/siRNA formulations. The data set is classed as physicochemical. Conditions: cyclic peptide/RNA 3:1; before and after binding with lipids (DSPC/cholesterol/RNA 2.4/3.1/1), DLS. The text has this:
Sample 5 and 8 were selected and initially mixed in a microfluidic channel at a mass ratio of 3:1 cyclic peptide/RNA to form a particle solution, which was then left to stabilize.
The mass ratio of distearoylphosphatidylcholine (DSPC)/cholesterol/RNA was set at 2.4/3.1/1. DSPC and cholesterol were weighed and dissolved in a certain volume of ethanol solution.
The cyclic peptide/siRNA aqueous solution was mixed with the lipid ethanol solution through a microfluidic channel to form composite particles again, where the final concentration of ethanol was 25%. Dialysis was used to remove the ethanol, and the final lipid/cyclic peptide/nucleic acid composite particles were collected.
Using the Malvern Zetasizer Nano ZS, the particle size and polydispersity index (PDI) before and after binding with lipids (5-L and 8-L) were measured for sample 5 and 8 using dynamic light scattering.

On to “Lys-Gln-Val-Leu-Lys-Gln-Val-Leu-Cys-Gln-Lys-Lys-Lys-Gln-Lys-Lys-Lys-Gln-Lys-Lys-Lys-Gln-Lys-Lys-Lys-Lys-Lys-Gln-Cys-Leu-Val-Gln-Lys-Leu-Val-Gln-Lys (KQVLKQVLCQKKKQKKKQKKKQKKKKKQCLVQKLVQK; disulfide 9-29 (inferred)) [Sample 6]”, for which, in data set [1], the Polydispersity index came out at 0.355, the Size is 32.58 nm and the Zeta potential was determined as 21.2.
As to “Lys-Leu-Leu-Lys-Leu-Leu-Lys-Leu-Leu-Lys-Leu-Leu-Cys-Lys-Lys-Lys-Lys-Lys-Cys-Leu-Leu-Lys-Leu-Leu-Lys-Leu-Leu-Lys-Leu-Leu-Lys (KLLKLLKLLKLLCKKKKKCLLKLLKLLKLLK; disulfide 13-19 (inferred)) [Sample 5]”, in data set [2], the “encapsulation of siRNA (agarose gel electrophoresis)” value (from here on “encapsulation of siRNA”) is on record as “encapsulate siRNA effectively”. In addition, the “green fluorescent protein expression intensity versus control LNP group” value in data set [3] is “more pronounced green fluorescent protein compared to the control LNP group”. Further, in data set [4], the PDI stood at 0.176 and the Size is on record as 60.17 nm. Besides, in data set [1], the Polydispersity index was 0.133 and the Size stood at 81.02 nm.
In the case of “Arg-Asp-Gly-Lys-Val-Gln-Leu-Lys-Val-Gln-Leu-Cys-Gln-Lys-Lys-Lys-Gln-Lys-Lys-Lys-Gln-Lys-Lys-Lys-Gln-Lys-Lys-Lys-Lys-Lys-Gln-Cys-Leu-Gln-Val-Lys-Leu-Gln-Val-Lys-Gly-Asp-Arg (RDGKVQLKVQLCQKKKQKKKQKKKQKKKKKQCLQVKLQVKGDR; disulfide 12-32 (inferred)) [Sample 9]”, the “encapsulation of siRNA” value in data set [2] is recorded as “encapsulate siRNA effectively”. In data set [1], the Polydispersity index came out at 0.169, the Size is given as 111.3 nm and the Zeta potential was determined as 23.0.
For “Lys-Lys-Leu-Lys-Lys-Leu-Cys-Lys-Lys-Lys-Lys-Lys-Lys-Lys-Lys-Lys-Lys-Lys-Lys-Lys-Lys-Cys-Leu-Lys-Lys-Leu-Lys-Lys (KKLKKLCKKKKKKKKKKKKKKCLKKLKK; disulfide 7-22 (inferred)) [Sample 3]”, in data set [1], the Polydispersity index was 0.065, the Size was found to be 299.1 nm and the Zeta potential was determined as 21.3.
Take “KKMLKKMLCQKKKKKQCLMKKLMKK (cysteine pairing not given here) [Sample 2]”: in data set [1], the Polydispersity index is on record as 0.326, the Size is on record as 211.9 nm and the Zeta potential is recorded as 34.1.
As for “Arg-Asp-Gly-Lys-Lys-Lys-Leu-Lys-Lys-Lys-Leu-Cys-Gln-Leu-Ile-Lys-Gln-Leu-Ile-Lys-Gln-Leu-Ile-Lys-Gln-Leu-Ile-Lys-Ile-Leu-Gln-Cys-Leu-Lys-Lys-Lys-Leu-Lys-Lys-Lys-Gly-Asp-Arg (RDGKKKLKKKLCQLIKQLIKQLIKQLIKILQCLKKKLKKKGDR; disulfide 12-32 (inferred)) [Sample 8]”, the “encapsulation of siRNA” value in data set [2] is “encapsulate siRNA effectively”. For the same substance, in data set [4], the PDI is given as 0.15 and the Size is listed as 31.85 nm. For the same substance, in data set [1], the Polydispersity index turned out to be 0.143, the Size was 29.92 nm and the Zeta potential stood at 16.5.
In the case of “Lys-Lys-Leu-Lys-Lys-Leu-Lys-Lys-Leu-Lys-Lys-Leu-Cys-Ala-Phe-Lys-Ala-Phe-Lys-Ala-Phe-Lys-Ala-Phe-Lys-Phe-Ala-Cys (KKLKKLKKLKKLCAFKAFKAFKAFKFAC; disulfide 13-28 (inferred)) [Sample 4]”, the “encapsulation of siRNA” value in data set [2] was “poor encapsulation effects”. In data set [1], the Polydispersity index worked out at 0.542, the Size worked out at 264.5 nm and the Zeta potential was found to be 18.6.
For “Lys-Ala-Met-Leu-Lys-Ala-Met-Leu-Lys-Ala-Met-Leu-Cys-Lys-Lys-Lys-Lys-Lys-Lys-Lys-Lys-Lys-Lys-Lys-Lys-Lys-Lys-Lys-Cys-Leu-Met-Ala-Lys-Leu-Met-Ala-Lys-Leu-Met-Ala-Lys (KAMLKAMLKAMLCKKKKKKKKKKKKKKKCLMAKLMAKLMAK; disulfide 13-29 (inferred)) [Sample 7]”, in that order: “encapsulate siRNA effectively”, 0.139, 145.1 nm and 26.3.
“Ala-Ala-Leu-Ala-Ala-Leu-Ala-Ala-Leu-Cys-Lys-Lys-Lys-Lys-Lys-Cys-Leu-Ala-Ala-Leu-Ala-Ala-Leu-Ala-Ala (AALAALAALCKKKKKCLAALAALAA; disulfide 10-16 (inferred)) [Sample 1]”: in data set [1], the Polydispersity index is 0.254, the Size came to 159.6 nm and the Zeta potential worked out at 7.09.
